Literature values in article PMC12860355.

Target: TATA-binding protein (Homo sapiens) (UniProt P20226)
UniProt P20226, sequence (P20226 whole entry): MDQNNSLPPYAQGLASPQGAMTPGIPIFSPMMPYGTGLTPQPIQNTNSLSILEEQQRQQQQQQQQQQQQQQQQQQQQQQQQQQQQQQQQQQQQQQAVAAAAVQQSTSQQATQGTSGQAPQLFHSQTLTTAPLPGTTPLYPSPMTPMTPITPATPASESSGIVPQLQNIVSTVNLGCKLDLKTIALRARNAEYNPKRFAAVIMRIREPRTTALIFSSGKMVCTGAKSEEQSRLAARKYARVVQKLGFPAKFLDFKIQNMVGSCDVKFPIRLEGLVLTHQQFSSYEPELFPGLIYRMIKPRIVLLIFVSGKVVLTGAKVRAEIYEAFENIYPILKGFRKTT

Kd: 1 nM
Substance: Importin 9 (from UniProt Q96P70)
